For assay [1], the target named is Humanized anti-HER2 monoclonal antibody trastuzumab (human). Briefly: SPR.
Assay [2] has as its target Recombinant protein G (PG) from Streptococcus sp. (Streptococcus sp.) (UniProt P19909). Briefly: QCM-D; PG covalently immobilised (APTES, glutaraldehyde) on a silica-coated QCM-D crystal, deactivated with Tris/ethanolamine, blocked with BSA; trastuzumab 1 ug/mL in 1 x PBS injected; Kelvin-Voigt model for mass and thickness.
In assay [3] the target is Linker-protein G (LPG) (Streptococcus sp.). Briefly: QCM-D; LPG physisorbed on a silica-coated QCM-D crystal, trastuzumab injected, PBS washes between injections; 1 x PBS pH 7.4, room temperature; Kelvin-Voigt model for mass and thickness.

Results on 2 substances are retold here after article PMC7022404.

In the case of “Recombinant protein G (PG) from Streptococcus sp. (from UniProt P19909 34-562) (natural protein)”, in assay [1], the Half-Life t1/2 turned out to be 1.4 min, the Kd amounted to 4.62 nM, the koff is 0.00824 s⁻¹ and the kon is 1.79e+06 M⁻¹ s⁻¹.

Consider “Humanized anti-HER2 monoclonal antibody trastuzumab”, for which, in assay [2], the Mass Deposited for Bound Antibody stood at 451 ng/cm^2 and the Thickness of Bound Antibody turned out to be 7.43 nm. The substance also came in with a Mass Deposited for Bound Antibody in assay [3] of 1200 ng/cm^2.

For orientation: Kd means a measure of binding affinity in units of concentration. A lower Kd goes with tighter binding. A word on the koff: it is a measure of how fast the partners let go of each other. High values mean a short-lived complex, low ones a long-lived complex. By kon is commonly meant the rate constant with which the complex forms. Higher therefore signals fast association.
